Source: patent US20180044415A1 (AbbVie / Abbott, published 2018)
Numbering of substitutions follows the chain as printed.

T1: human DLL3 (immobilized human DLL3 or h293-hDLL3 cells) (human, UniProt Q9NYJ7 27-492, limits assumed)
T1 construct: the sentence says 'immobilized human DLL3 or h293-hDLL3 cells'
T1 sequence: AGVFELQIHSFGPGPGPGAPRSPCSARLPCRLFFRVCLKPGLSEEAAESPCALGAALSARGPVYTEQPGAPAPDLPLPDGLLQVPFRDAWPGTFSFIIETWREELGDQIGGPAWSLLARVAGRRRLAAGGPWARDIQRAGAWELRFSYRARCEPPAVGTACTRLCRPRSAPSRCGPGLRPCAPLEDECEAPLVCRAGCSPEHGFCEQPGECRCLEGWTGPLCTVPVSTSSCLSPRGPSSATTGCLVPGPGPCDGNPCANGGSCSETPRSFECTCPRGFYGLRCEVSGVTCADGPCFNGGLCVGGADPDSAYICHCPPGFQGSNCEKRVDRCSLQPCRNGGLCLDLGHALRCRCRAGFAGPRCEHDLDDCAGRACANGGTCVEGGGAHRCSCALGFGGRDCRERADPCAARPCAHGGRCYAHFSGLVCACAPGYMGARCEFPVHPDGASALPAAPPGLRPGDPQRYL

B1: SC16.144 (antibody, V domains shown)
VH: QIQLVQSGPELKKPGETVKISCKASGYTFTNYGMNWVKQAPGKGLKWVGWINTYTGEPTYADDFKGRFAFSLETSASTAYLQIDNLKNEDTATYFCARVGDYVGFDYWGQGTTLTVSS
VL: SIVMTQTPKFLLVSAGDRVTITCKASQSVSNDVGWYQQKPGQSPKLLIYYASNRYNGVPDRFTGSGYGTDFTFTISTVQAEDLAVYFCQQDYSSPWTFGGGTKLEIK
notes: murine mAb; variable regions only
B2: SC16.143 (antibody, V domains shown)
VH: QVQLQQSGPELVKPGASVRISCKASGYTFTSYYIHWVKQRPGQGLEWIGWIYPGNGNTKYNEKFKGKATLTADKSSSTAYMQISSLTSEDSAVYFCARERWLLLWFAYWGQGTLVTVSA
VL: DVLMTQTPLSLPVSLGDQASISCRSSQSIVHSNGNTYLEWYLQKPGQSPKLLIYKVSNRFSGVPDRFSGSGSGTDFTLKISRVEAEDLGVYYCFQGSHVPLTFGAGTKLELK
notes: as for B1
B3: SC16.8 (antibody, V domains shown)
VH: QAQLQQSGAELVRPGTSVKVSCKASGYAFTNYLIEWVKQRPGQGLEWIGVINPGTGGTNYNENFKGKATLTADKSSSTAYMQLSSLTSDDSAVYFCARSPYDYHEGAMDYWGQGTSVTVSS
VL: EIQMTQSPSSMSASLGDRITITCQATQDIVKNLNWYQQKPGKPPSFLIYYAIELAEGVPSRFSGSGSGSDYSLTISNLESEDFADYYCLQFYEFPFTFGAGTKLELK
notes: as for B1
B4: SC16.20 (antibody, V domains shown)
VH: QVQLQQSGTELVRPGTSVRVSCKASGYAFGNHLIEWVKQRPGQGLEWIGVINPGTGGTHYNEKFKDKARLTADKSSNTAYMHLNSLTSDDSAVYFCARSPYDYHEGAMDYWGQGTSVTVSS
VL: B3 VL with I52T, S76R, Y86H
notes: as for B1
B5: SC16.147 (antibody, V domains shown)
VH: QIQLVQSGPELTKPGETVKISCKASGYTFTDYSLHWVKQALGKGLKWMGWINTETGEPAYADDFKGRFAFSLETSASTAYLQINDLKNEDTTTYFCGIYDGYAMDYWGQGTSVTVSS
VL: DIQMTQTASSLSASLGDRVTISCRASQDINNYLNWYQQKPDGTVKLLIYYTSRLHSGVPSRFSGSGSGTDYSLTISILEQEDIATYFCQQGDTLPWTFGGGTKLEIK
notes: as for B1
B6: SC16.22 (antibody, V domains shown)
VH: QVQLQQPGAELVKPGASVKLSCKASGYTFTTYWMHWVKQRPGQGLEWIGEIDPSDSYTYYNQKFKGKATLTVDKSSSTAYMQLSSLTSEDSAVYYCARGDYGNPYAMDYWGQGSSVTVSS
VL: B5 VL with A8T, N30K, L46P, L54V, I77N, D92Y, W96F, G100S
notes: as for B1
B7: SC16.4 (antibody, V domains shown)
VH: B5 VH with T12K, L34M, L41P, A59G, D85N, T92A, G97A, I98R
VL: B5 VL with A8T, N30S, I77N, Q80L, T93M
notes: as for B1
B8: SC16.18 (antibody, V domains shown)
VH: EVKLEESGGGLVQPGESMKLSCAASGFTFSDAWMDWVRQSPEKGLEWVAEIRNKANNHATYYAESVKGKFTISRDDSKSRVYLQMNNLRAADTGIYYCTAYSNFAYWGQGTLVTVST
VL: DIQMTQTTSSLSASLGDRVTISCRASQNIINYLNWYQQKPDGTVKLLIYYTSRLHSGVPSRFSGSGSGTDYSLTISNLEPEDIATYYCQQYSERPYTFGGGTKLEIK
notes: as for B1
B9: SC16.41 (antibody, V domains shown)
VH: B8 VH with P14F, E16G, A63P, K69R, A91E, A100G, N103S, T117A
VL: B8 VL with N28D, I29V, G68R
notes: as for B1
B10: SC16.15 (antibody, V domains shown)
VH: QVQLQQSGAELAKPGASVKMSCKASGYTFTRYWIHWIKQRPGQGLEWIGYINPTTVYTEFNQNFKDKATLTADKSSTTASMQLSSLTSEDSAVYYCARGGSNFFDYWGQGTTLTVSS
VL: DIQMTQSPASLAASVGETVAITCRASENIYYNLAWYQQKQGKSPQLLIYTANSLEDGVPSRFSGSGSGTQYSLKINSMQPEDSATYFCKQAYDVPPTFGGGTKLEIK
notes: as for B1
B11: SC16.19 (antibody, V domains shown)
VH: EVQLQQSGAELVRPGASVKLSCTASGFNIKDSLLHWVKQRPEKGLEWIGWIDPEDGETKYAPNFQDKATITTDSSSNTAYLQLISLTSVDTAIYYCAYGNYVRHFDYWGQGTTLTVSS
VL: DIQMTQSPSSLSASLGGKVTFTCKASQDIHKYVAWYQHKPGKGPRLLIHYTSTLQPGISSRFSGSGSGRDYSFSISNLEPEDIATYYCLQYNNLYTFGGGTKLEIK
notes: as for B1
B12: SC16.3 (antibody, V domains shown)
VH: QVTLKESGPGILQPSQTLSLTCSFSGFSLSTSGMGVGWIRQPSGKGLEWLAHIWWDDVKRYNPALKSRLTISKDTSSSQVFLKIASVDTADTATYYCARIADYGGDYYAMDYWGQGTSVTVSS
VL: QIVLTQSPAIMSVSLGERVTMTCTASSSVSSSYLHWYQQKPGSSPKLWIYSTSNLASGVPARFSGSGSGTSYFFTISSMEAEDAATYYCHQYHRSPFTFGAGTKLKIR
notes: as for B1
B13: SC16.10 (antibody, V domains shown)
VH: QVTLKESGPGILQSSQTLSLTCSFSGFSLSTSGMGVGWIRQPSGKGLEWLAHIWWDDVKRYNPVLKSRLTISKDTSSSQVFLKIASVDTADTATYYCARLVDDLYYFDYWGQGTTLTVSS
VL: B12 VL with V13A, A61T, F73S, F74L, A101S, K106E, R108K
notes: as for B1
B14: SC16.148 (antibody, V domains shown)
VH: QIQLVQSGPELKKPGETVKISCKASGYTLTNYGMNWVKQAPGKGLKWMGWINTYTGEPTYADDFKGRFAFSLETSARIVYLQINNLKNEDTATYFCAKYEAHEGFVYWGQGTLVTVSA
VL: QIVLTQSPAIMSASPGEKVTMTCSASSSVSYMYWYQQKPGSSPRLLIYDTSNLASGVPVRFSGSGSGTSYSLTISRMEAEDTATYYCQEWSNNPLTFGDGTKLELK
notes: as for B1
B15: SC16.11 (antibody, V domains shown)
VH: QIQLVQSGPELKKPGETVKISCKASGYTFTDYSMHWVKQAPGKGLKWMGWINTETVEPTYADDFMGRFAFSLETSASTAFLQINNLENEDTATYFCARFGSYAMDYWGQGTSVTVSS
VL: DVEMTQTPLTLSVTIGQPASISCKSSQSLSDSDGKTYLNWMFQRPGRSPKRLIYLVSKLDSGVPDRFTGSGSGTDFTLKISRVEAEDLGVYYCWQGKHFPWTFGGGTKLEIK
notes: as for B1
B16: SC16.7 (antibody, V domains shown)
VH: EVQLQQSGPELVKPGASVKISCKASGYSFTGYKMHWVKQSHVKSLEWIGRINPYNGATSYNQNFKDKATLTVDKSSSTAYMDLHSLTSEDSAVYFCARGDYRYDWFAYWGQGTLVTVSA
VL: NIMMTQSPSSLAVSAGEKVTMSCKSSQSVLYSSNQKNYLAWYQQKPGQSPKLLIYWASTRESGVPDRFTGSGSGTDFTLTISTVQVEDLAVYYCHQYLSSWTFGGGTKLEIK
notes: as for B1
B17: SC16.5 (antibody, V domains shown)
VH: QVTLKESGPGILQPSQTLSLTCSFSGFSLSTSGMGVGWIRQPSGEGLEWLADIWWDDNKYYNPSLKSRLTISKDTSSNQVFLKITSVDTADTATYYCARRVNYVYDPYYAMDYWGQGTSVTVSS
VL: QIVLTQSPAIMSASPGEKVTMTCSASSSVSYMHWYQQKSGTSPKRWIYDTSKLASGVPARFSGSGSGTSYSLTISSMEAEDAATYYCQQWTRNPLTFGAGTKLELK
notes: as for B1
B18: SC16.25 (antibody, V domains shown)
VH: B17 VH with A51T, K83N, V104Y
VL: B17 VL with T50S, T91S, R92S
notes: as for B1
B19: SC16.126 (antibody, V domains shown)
VH: QVQMKESGPGLVAPSQSLSITCTVSGSSLTNYGVHWVRQPPGKGLEWLGVIWAGGSTNYNSALMSRLSISKDNSKSQVFLKMNSLQTDDTAMYYCARDWEGWFAYWGQGTLVTVSA
VL: DIQMNQSPSSLSASLGDTITITCHASQNINVWLSWYQQKPGNIPKLLIYKASNLHTGVPSRFSGSGSGTGFTLTISSLQPEDIATYYCQQGQSYPFTFGSGTKLEIK
notes: as for B1
B20: SC16.149 (antibody, V domains shown)
VH: B19 VH with M4L, T23A, S27F, N31S, Y32F, N60Y, K71I
VL: B19 VL with N53H, F62L, K103T
notes: as for B1
B21: SC16.21 (antibody, V domains shown)
VH: QVQLQQSGPELVKPGASVKISCKASGYAFSSSWMNWVKQRPGKGLEWIGRIYPGDGDTNYNGKFKGKATLTADKSSSTAYMQLSSLTSEDSAVYFCAMGIYNYDGSRYYSMDYWGQGTSVTVSS
VL: DIVMTQSPSSLAMSVGQKVTMSCKSSQSLLNSSNQKNYLAWYQQEPGQSPKLLVSFASTRESGVPDRFTGSGSGTDFTLTISGVQAEDLAVYYCQQHYSIPLTFGAGTKLELK
notes: as for B1

target: T1, human DLL3 (immobilized human DLL3 or …); assay: hybridoma screening on immobilized human DLL3 or on h293-hDLL3 cells

Binding result, binds:
B1
B2
B3
B4
B5
B6
B7
B8
B9
B10
B11
B12
B13
B14
B15
B16
B17
B18
B19
B20
B21
